Reference: article PMC6796740

Target: human transferrin receptor (hTfR, hTfR1) extracellular domain (Homo sapiens, UniProt P02786 89-760)
Test: SPR

human transferrin receptor (hTfR, hTfR1) extracellular domain, sequence (P02786 89-760): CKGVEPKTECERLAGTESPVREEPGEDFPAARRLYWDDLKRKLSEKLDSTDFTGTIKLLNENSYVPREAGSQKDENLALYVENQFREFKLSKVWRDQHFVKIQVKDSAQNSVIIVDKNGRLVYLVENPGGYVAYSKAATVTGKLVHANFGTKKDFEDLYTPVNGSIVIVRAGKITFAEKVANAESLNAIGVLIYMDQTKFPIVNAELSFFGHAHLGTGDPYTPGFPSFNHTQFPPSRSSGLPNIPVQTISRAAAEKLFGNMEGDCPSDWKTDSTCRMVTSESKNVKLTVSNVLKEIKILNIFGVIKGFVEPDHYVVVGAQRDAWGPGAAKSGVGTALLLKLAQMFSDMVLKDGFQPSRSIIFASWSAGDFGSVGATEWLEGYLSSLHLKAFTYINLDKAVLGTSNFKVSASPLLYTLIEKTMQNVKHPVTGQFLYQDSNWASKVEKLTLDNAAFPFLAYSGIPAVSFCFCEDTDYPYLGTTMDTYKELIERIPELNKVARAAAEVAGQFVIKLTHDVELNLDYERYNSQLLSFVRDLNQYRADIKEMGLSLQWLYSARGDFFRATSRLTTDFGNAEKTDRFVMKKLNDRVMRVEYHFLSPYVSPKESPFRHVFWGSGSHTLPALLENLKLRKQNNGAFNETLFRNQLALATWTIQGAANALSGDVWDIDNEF

| Binder | binding result |
| --- | --- |
| GCUCAAUGCGUUCACGUUUAUUCACAUUUUUGAAUUGAGC (structured_RNA, 2'-F pyrimidines presumed, not restated for truncates) [TR14 ST1-1 (40 nt)] | no binding |
| AAUGCGUUCACGUUUAUUCACAUUUUUGAAUU (structured_RNA, 2'-F pyrimidines presumed, not restated for truncates) [TR14 ST1-2 (32 nt)] | no binding |
